Experimental findings from patent publication US20170291955A1 are described below.

The target in test [1] is KI_II (mouse; human) (UniProt P70424). Kind of test: SPR (ProteOn XPR36), variant captured by anti-Her2 polyclonal antibody, 39S injected; apparent affinity.
Test [2] addresses KO_I (mouse; human) (UniProt P70424). The test is described as above.
The target in test [3] is KI_II (mouse; human) (UniProt P70424). Kind of test: SPR (ProteOn), variant captured, 39S injected; apparent affinity.

B1: 39S antibody (antibody, V domains shown)
VH: EVQLVESGGGLVKPGGSLRLSCAASGFTFSSYSMSWVRQAPGKGLEWVSSISSSSSYIYYADSVKGRFTISRDNAKNSLYLQMNSLRAEDTAVYYCARGGDAYNYYYFDYWGQGTLVTVSS
VL: DIVMTQTPLSLSVTPGQPASISCKSSQSVFFRSNNKNILAWYLQKPGQPPQLLIYWASSRESGVPDRFSGSGSGTDFTLKISRVEAEDVGVYYCQQYFGSPFTFGPGTKVDIK
Regarding B1, the Kd is 0.163 nM in test [1], 0.095 nM in test [2] and 0.168 nM in test [3].
